The target of experiment [1] is alcohol dehydrogenase (UniProt P00330).
Experiment [2] has as its target citrate synthase (UniProt P00889).
Experiment [3] addresses βB2-crystallin (calf (endogenous in calf lenses)) (UniProt P02522).

Sequence of human wild-type αA-crystallin (P02489 whole entry): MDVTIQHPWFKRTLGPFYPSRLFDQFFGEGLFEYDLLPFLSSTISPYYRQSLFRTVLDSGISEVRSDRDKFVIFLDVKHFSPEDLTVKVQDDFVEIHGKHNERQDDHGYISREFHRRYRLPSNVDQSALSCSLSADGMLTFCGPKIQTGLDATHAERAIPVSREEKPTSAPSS
Sequence of βB2-crystallin (calf (endogenous in calf lenses)) (P02522 whole entry): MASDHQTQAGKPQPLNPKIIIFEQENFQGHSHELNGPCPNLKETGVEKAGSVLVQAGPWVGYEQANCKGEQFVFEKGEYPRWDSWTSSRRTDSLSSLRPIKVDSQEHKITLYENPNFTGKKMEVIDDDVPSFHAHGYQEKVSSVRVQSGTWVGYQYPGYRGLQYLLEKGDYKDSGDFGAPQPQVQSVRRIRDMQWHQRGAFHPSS
Sequence of citrate synthase (P00889 28-464): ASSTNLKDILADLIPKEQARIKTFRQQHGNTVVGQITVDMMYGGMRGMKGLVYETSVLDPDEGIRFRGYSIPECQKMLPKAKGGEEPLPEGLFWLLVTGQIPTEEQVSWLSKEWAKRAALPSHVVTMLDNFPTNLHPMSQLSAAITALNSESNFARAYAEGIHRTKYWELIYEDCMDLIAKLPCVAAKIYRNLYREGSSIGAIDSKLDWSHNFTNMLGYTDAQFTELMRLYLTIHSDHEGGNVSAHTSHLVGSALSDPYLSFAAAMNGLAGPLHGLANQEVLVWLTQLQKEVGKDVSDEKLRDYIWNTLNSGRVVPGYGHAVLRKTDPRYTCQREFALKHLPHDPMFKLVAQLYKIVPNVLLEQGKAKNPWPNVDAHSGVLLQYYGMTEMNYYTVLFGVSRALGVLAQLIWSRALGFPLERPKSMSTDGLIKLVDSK
Sequence of alcohol dehydrogenase (P00330 whole entry): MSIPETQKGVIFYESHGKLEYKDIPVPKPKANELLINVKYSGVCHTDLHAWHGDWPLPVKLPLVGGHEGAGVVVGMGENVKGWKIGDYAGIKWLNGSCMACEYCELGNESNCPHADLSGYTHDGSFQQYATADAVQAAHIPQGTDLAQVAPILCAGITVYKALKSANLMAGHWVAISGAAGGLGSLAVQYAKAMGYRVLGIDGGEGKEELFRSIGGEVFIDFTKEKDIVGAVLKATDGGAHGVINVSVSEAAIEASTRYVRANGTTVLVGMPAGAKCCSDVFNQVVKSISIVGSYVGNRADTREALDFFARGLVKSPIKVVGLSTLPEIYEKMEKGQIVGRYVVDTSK

In experiment [1], “human wild-type αA-crystallin (from UniProt P02489 1-173) (natural protein)” yielded an EC50 of chaperone protein for suppression of EDTA-induced aggregation of ADH (250 µg in 1 ml) at 37°C, scattering at 360 nm at 60 min of 45 µg. The substance further returned an amount of chaperone protein for fifty percent protection from thermal aggregation of CS (75 µg in 1 ml) at 43°C, scattering at 360 nm at 60 min in experiment [2] of 22 µg. Moreover, in experiment [3], the amount of chaperone protein that suppresses the aggregation of βB2-crystallin (250 µg in 1 ml) at 37°C by 50%, scattering at 360 nm at 60 min worked out at 30 µg.

The values are drawn from article PMC9019814.
